Reference: doi:10.1101/2021.03.08.434344 (bioRxiv, 2021)

Target: the molecule itself
Test: cryo-EM structure

B1: Homo sapiens ferritin (apoferritin) (natural protein, human, UniProt Q8TD27 1-165, looked up)
chain: MTTASTSQVRQNYHQDSEAAINRQINLELYASYVYLSMSYYFDRDDVALKNFAKYFLHQSHEEREHAEKLMKLQNQRGGRIFLQDIKKPDCDDWESGLNAMECALHLEKNVNQSLLEFPSPISPSPSCWHHYTTNRPQPQHHLLRPRRRKRPHSIPTPILIFRSP
B1: binds.
